# Where two headings read alike, the source gives them in different places.
# T1: GBP1 mutant R48A (human, UniProt P32455 1-592, R48A)
# T1 sequence (looked up): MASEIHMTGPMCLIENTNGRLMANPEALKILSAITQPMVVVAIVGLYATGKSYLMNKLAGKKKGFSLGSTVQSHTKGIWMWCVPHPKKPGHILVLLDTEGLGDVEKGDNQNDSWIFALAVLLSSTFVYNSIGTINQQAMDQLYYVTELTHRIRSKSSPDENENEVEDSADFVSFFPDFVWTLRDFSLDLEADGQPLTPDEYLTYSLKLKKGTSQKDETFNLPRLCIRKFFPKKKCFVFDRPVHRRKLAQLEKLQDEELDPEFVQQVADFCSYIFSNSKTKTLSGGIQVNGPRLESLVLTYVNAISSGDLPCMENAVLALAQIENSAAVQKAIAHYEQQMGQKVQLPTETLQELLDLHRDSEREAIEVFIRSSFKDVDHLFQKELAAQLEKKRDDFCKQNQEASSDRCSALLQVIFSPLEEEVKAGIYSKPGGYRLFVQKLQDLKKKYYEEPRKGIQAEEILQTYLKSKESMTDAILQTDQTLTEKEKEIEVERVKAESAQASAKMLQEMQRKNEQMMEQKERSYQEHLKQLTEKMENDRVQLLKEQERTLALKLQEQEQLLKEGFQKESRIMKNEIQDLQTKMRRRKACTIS
# T2: GBP1 mutant D103N (human, UniProt P32455 1-592, D103N)
# T2 sequence (looked up): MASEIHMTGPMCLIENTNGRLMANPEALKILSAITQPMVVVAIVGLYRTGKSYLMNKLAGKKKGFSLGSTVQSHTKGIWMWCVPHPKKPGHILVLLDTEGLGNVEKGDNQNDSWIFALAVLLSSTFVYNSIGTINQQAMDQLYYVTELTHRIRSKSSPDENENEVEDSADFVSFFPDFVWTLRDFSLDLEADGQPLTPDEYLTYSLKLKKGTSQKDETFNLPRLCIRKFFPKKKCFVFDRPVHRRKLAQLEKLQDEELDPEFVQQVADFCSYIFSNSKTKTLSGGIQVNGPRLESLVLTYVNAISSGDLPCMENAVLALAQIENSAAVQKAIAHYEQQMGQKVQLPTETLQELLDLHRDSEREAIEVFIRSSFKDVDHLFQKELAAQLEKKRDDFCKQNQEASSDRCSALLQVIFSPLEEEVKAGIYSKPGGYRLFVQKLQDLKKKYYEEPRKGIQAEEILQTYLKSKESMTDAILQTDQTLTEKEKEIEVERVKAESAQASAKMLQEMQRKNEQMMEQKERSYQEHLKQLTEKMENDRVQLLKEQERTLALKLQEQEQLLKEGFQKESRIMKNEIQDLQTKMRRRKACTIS
# T3: GBP1 mutant D184A (human, UniProt P32455 1-592, D184A)
# T3 sequence (looked up): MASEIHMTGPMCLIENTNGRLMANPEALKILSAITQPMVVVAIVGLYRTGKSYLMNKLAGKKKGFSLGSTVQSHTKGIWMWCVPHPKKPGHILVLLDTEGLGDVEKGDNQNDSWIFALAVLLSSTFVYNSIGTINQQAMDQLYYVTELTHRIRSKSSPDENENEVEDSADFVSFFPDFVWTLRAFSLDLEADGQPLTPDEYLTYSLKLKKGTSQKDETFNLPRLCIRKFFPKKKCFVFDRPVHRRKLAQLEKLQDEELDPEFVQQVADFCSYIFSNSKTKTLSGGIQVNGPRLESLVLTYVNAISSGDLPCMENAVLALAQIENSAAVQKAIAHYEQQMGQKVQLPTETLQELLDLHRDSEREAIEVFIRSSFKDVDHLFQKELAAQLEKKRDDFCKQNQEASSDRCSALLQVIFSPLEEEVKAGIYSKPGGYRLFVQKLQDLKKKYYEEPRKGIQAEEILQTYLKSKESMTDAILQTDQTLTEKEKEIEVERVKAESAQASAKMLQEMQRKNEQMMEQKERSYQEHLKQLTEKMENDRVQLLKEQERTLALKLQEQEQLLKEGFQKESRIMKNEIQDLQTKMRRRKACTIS
# T4: GBP1 mutant R227E/K228E (human, UniProt P32455 1-592, R227E | K228E)
# T4 sequence (looked up): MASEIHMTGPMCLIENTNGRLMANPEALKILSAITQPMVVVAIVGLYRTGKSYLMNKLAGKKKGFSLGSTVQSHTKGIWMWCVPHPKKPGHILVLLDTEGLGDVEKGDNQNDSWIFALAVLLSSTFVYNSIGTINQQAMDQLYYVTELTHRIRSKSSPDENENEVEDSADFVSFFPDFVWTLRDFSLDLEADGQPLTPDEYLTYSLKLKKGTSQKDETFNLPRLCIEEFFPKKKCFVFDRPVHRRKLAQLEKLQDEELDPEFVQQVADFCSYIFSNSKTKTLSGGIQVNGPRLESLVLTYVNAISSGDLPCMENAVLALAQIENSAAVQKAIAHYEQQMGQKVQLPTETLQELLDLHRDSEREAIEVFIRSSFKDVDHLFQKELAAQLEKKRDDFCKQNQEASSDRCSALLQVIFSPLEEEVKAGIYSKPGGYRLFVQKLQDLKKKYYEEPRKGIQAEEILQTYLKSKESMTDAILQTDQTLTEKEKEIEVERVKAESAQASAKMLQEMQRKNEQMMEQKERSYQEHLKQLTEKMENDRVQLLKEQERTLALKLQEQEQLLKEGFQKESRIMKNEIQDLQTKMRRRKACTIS
# B1: PIM1 (recombinant) (enzyme)
# chain: not shown
# What was measured:
# Assay in all cases: SPR
# GBP1 mutant R48A = target: T1, GBP1 mutant R48A
# GBP1 mutant D103N [1] = target: T2, GBP1 mutant D103N
# GBP1 mutant D184A = target: T3, GBP1 mutant D184A
# GBP1 mutant R227E/K228E = target: T4, GBP1 mutant R227E/K228E
# GBP1 mutant D103N [2] = target: T2, GBP1 mutant D103N; remark: listed apart in the source
binder,measurement,setting,value
B1,Kd,GBP1 mutant R48A,0.021 ± 0.0001 µM
same,Kd,GBP1 mutant D103N [1],0.015 ± 0.0001 µM
same,Kd,GBP1 mutant D184A,0.077 ± 0.003 µM
same,Kd,GBP1 mutant R227E/K228E,> 10 µM
same,Kd,GBP1 mutant D103N [2],0.021 ± 0.001 µM

# Reference: paper PMC4191604 (Journal of Medicinal Chemistry, 2014)
